Test results from publication PMC3766608, “Thermal Stability of Glucokinases in Thermoanaerobacter tengcongensis” (BioMed Research International, 2013).

Tests used:
Type in all cases: biochemical, Caldanaerobacter subterraneus
purified protein [1] = substrate: Nc1ncnc2c1ncn2[C@@H]1O[C@H](COP(=O)(O)OP(=O)(O)O)[C@@H](O)[C@H]1O; assay: purified protein; conditions: glucose as co-substrate, Mg2+, Tris-HCl (pH optimum 8.0, T opt 80 °C)
purified protein [2] = substrate: Nc1ncnc2c1ncn2[C@@H]1O[C@H](COP(=O)(O)OP(=O)(O)OP(=O)(O)O)[C@@H](O)[C@H]1O; assay: purified protein; conditions: glucose as co-substrate, Mg2+, Tris-HCl pH 8.0, 75 °C
coupled enzyme assay = substrate: Nc1ncnc2c1ncn2[C@@H]1O[C@H](COP(=O)(O)OP(=O)(O)OP(=O)(O)O)[C@@H](O)[C@H]1O; assay: coupled enzyme assay; conditions: Mg2+, Tris-HCl, sugar co-substrate not stated for this constant (pH optimum 7.5, T opt 70 °C)
From the text: coupled enzyme assay on TTE2418 (glu/man-NacK)

B1: TTE1961 (ADP-GLK) (Caldanaerobacter subterraneus subsp. tengcongensis MB4) (protein)
chain: MRIGVDLGGTNIAVGLVEEDGKIIATGSRPTKPERGYEAIARDIAELSFELLQRMGISVKDVKSMGIGVPGVADNEKGIVIRAVNLFWTKVPLAKEIRKYIDLPIYMENDANVAALAEATFGAGRGSKSSVTITLGTGVGSGFILDGKIYSGAHHFAPEIGHMVIGDNGIRCNCGKIGCFETYASATALIREGKKAAKRNPNTLILKFANGDIEGITAKNVIDAAKQYDEEALKIFEEYVKYLAVGIVNIINLFDPEVIILGGGVANAGDFLLKPLKKEVAENILFKELPYADIRKAELGNDAGIIGAAILS
notes: recombinant, His-tagged
In the case of B1, the Km (purified protein [1]) is reported as 0.9 mM.

B2: TTE0090 (ATP-GLK) (Caldanaerobacter subterraneus subsp. tengcongensis MB4) (protein)
chain: MKKFLCGVDLGGTKISTGIVDENGNIIKSIKIPTMAEKGPDVVIERIEESIYQVLKDTGLEMSNLKGIGIGSPGPLNAKKGIVISPPNLPHWSNVPIVEILSKRLGIEVRLENDANAAAIGEHLFGSGRGVDNFVYITVSTGIGGGVIIEGKLYSGENSNAAEIGHHTINFDGPRCNCGNYGCFEAYASGTAIARFAREGIEKGIKTKIKELAGEGEVKAEHVFEAAKLGDEFAKELVEKEAFYLGVGIANIMAFYNPRKIAIGGGVSAQWDMLYEKMMETVRKKALKPNAEVCEVVKAQLGENIGVLGAAALLL
notes: recombinant, His-tagged
B2 was tested, and the Km (purified protein [2]) was 2.6 mM and the Vmax (purified protein [2]) was 100/ND.

B3: TTE2418 (glu/man-NacK) (Caldanaerobacter subterraneus subsp. tengcongensis MB4) (protein)
chain: MKVIGVDIGGTKILGGLIDERGNLLEETLVYTKAHLGREKILENLFIAIDKLIDKDVKGIGIGSAGRINFKEGIVEYATDNLPGWTGCNLKQLLEDRYKIPVIADNDVNAAVIGEIWQGAGRGYKDIVMIAIGTGVGGAIVYNGEVIRGGSWSAGEIGHMILYPKGRQCNCGQRGCLEQYVSGTAIARTYSEVSKEKKIAGAEEVFLLAEKGDKMALEIVNDFVNSLSIAILSLKNLLDPEIFIIGGGVIGAKRVWWDKLKKTLENRASITPAQLENKATMVGAAKLIIDYLSKNN
notes: recombinant
In the case of B3, the Km (coupled enzyme assay) is reported as 1.9 mM and the Vmax (coupled enzyme assay) is reported as 51/ND.
